The target in test [1] is T1, Human γC ECD (human, UniProt P31785 23-262, biotinylated (site not stated)).
T1 construct: extracellular domain; Biotinylated and held on a streptavidin chip for SPR; also called common gamma; biotinylated human γC ECD
T1 sequence (looked up): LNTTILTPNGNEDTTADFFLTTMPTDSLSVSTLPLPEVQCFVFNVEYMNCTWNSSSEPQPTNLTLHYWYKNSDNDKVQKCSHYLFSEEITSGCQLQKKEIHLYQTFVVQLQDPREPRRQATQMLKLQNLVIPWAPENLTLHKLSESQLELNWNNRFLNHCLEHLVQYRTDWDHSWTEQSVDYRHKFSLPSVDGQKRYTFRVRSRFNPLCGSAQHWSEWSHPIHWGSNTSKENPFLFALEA
The experiment in a line: SPR, steady-state binding affinity (drawn table). The protocol: (§1) FIGS. 2A-2H show data on SPR validation of IL-2Rβ- and γc-VHHs and agonist screening in YT-1 cells. (A) Biotinylated human IL-2Rβ ECD was immobilized on a streptavidin (SA) sensor chip, and varying concentrations of IL-2Rβ VHH were applied to determine binding parameters using SPR. Sensorgrams are shown on the left, and steady state binding is plotted on the right. Binding affinities (KD) were determined by fitting to steady state response values. (B) Biotinylated human γC ECD was immobilized on a SA chip, and varying concentrations of γc VHH were flowed over the chip to determine binding. […] (C) Steady-state binding affinities between VHH/scFv and IL-2R, as determined by SPR. Values for scFv affinities are derived from patent US20160367664A1 (Wang et al., 2016). (D) Table of pSTAT5 Eₘₐₓ values for the indicated VHH pairings. (E) Tuning IL-2 activity via generation of acid-base VHH zipper pairings. (F) Tuning IL-2 activity via generation of 2:1 β:γc or γc:β stoichiometries. VHH binding modules are linked together in a tripartite (β-γc-β or γc-β-γc) manner. Graph axes are represented as in (E). (G) Dose-response relationship of pSTAT5 geometric mean flurorescence intensities (gMFI) of selected agonists. (H) Corresponding histograms showing STAT5 activity in YT-1 cells treated with human IL-2 vs. IL-2 surrogate agonists at saturating concentration.
(In general: Surface plasmon resonance follows binding to a sensor surface in real time, without labels.)

Test [2] has as its target T1, Human γC ECD. The experiment in a line: SPR; biotinylated human γc ECD on streptavidin chip, VHH as analyte; KD from fit to steady-state responses [Cont.]. The protocol:
as §1

The target of test [3] is T1, Human γC ECD. The test can be described thus: drawn table of affinities; the scFv value is derived from patent US20160367664A1 (Wang et al., 2016), not measured in this filing.

B1: γc-VHH3 (VHH)
VHH: QVQLQESGGGSVQAGGSLRLSCAASGYTYSKNWYMGWFRQTPGKEREGVAVIAYDDWPTYADSVKGRFTISKDNTKNTLYLQMNSLKPEDTAMYYCAARQLGGDYCYFPNLSRFCYNYWGQGTQVTVSS
notes: also called γC nanobody clone 3
In the case of B1, the figures for the Kd with Human γC ECD [1] and with Human γC ECD [2] were 7 nM and 6.7 nM, respectively.

B2: γ scFv2 (P2B9) (scFv)
scFv (VH-linker-VL): QVQLQESGPGLVKPSETLSLTCTVSGGSISSSSYYWGWIRQPPGKGLEWIGSIYYSGSTYYNPSLKSRVTISVDTSKNQFSLKLSSVTAADTAVYYCAGDILTGYALDYWGQGTLVTVSSGGGGSGGGGSGGGGSSYELTQPPSMSVSPGQTARITCSGDALPKQFAFWYQQKPGQAPVLVIYKDTERPSGIPERFSGSSSGTTVTLTITGVQAEDEADYYCQSPDSSGTVEVFGGGTKLTVL
notes: also called γc-scFv2 (P2B9)
In the case of B2, the Kd – broadly, the free concentration of one partner at which half of the binding sites on the other are occupied at equilibrium, for simple one-to-one binding – with Human γC ECD [3] turned out to be 79 nM.

B3: γc-VHH4 (VHH)
VHH: QVQLQESGGGSVQAGGSLRLSCTASGFTFNEANHMGWYRQAPGNECELVSTISSDGTTYYPDSVKGRFTISQDNAKKTAFLQMNSLKPEDTAVYYCAADQSRRGSLCLGQGTQVTVSS
notes: also called γC nanobody clone 4
For B3, the Kd in the test with Human γC ECD [1] stood at 20 nM; with Human γC ECD [2] it was 19.7 nM.

B4: γc-VHH6 (VHH)
VHH: QVQLQESGGGSVQAGGSLRLSCAASGYTYRDYYMGWFRQAPGREREGVASIYTRGSREGSTRYSSSVEGRFTITLDTAKNTLYLQMNSLKPEDTAMYYCAADDRTWLPRVQLGGPRENEYNYWGQGTQVTVSS
notes: also called γC nanobody clone 6
Take B4: the Kd with Human γC ECD [1] was determined as 69 nM; with Human γC ECD [2], 68.6 nM.
